# Source: US12312397B2, “Anti-O2 antibodies and uses thereof” (priority 2016, dated 2025)
# Legend:
# O2 LPS = test: ELISA binding to O2 LPS; parameters: species or system Klebsiella pneumoniae; conditions: secondary screening, ELISA
# Method: (§1) The coated plates were incubated with cell culture supernatants from polyclonally stimulated lymphocytes (AMVBRA) or from monoclonal immortalized B cells (donor interrogations) containing fully human antibodies or with diluted plasma samples (PBMC donor selections) for 1 hour at room temperature. The plates were then washed with PBS containing 0.1% Tween-20 (PBS-T). Secondary antibody was added; either Alkaline Phosphatase-conjugated Goat Anti-Human IgG-AP (Southern Biotech, 2040-04, 1:1000 in PBS-B) or Peroxidase AffiniPure F(ab′)2 Fragment Goat Anti-Human IgG, Fc Fragment Specific (Jackson ImmunoResearch #309 036 098, 1:5000 in PBS-B) were used. Secondary antibodies were typically incubated for 1 h. Plates were washed three times with PBS-T, and P-NitroPhenyl Phosphate (pNPP, Sigma-Aldrich, cat #N2765-100TAB) or Sureblue (KPL, 53-00-03) substrates were added and incubated for 10 min or until the development of a colorimetric reaction. In the case of the HRP substrate Sureblue, the reaction was stopped by adding an equal volume of 0.2N HCl. The absorbance at 405 nm (pNPP) or 450 nm (Sureblue) was measured by a microplate reader (Biotek, Elx808).
# (§2) The coated plates were incubated with serial dilutions of the monoclonal antibodies for 1 hour at room temperature. The plates were then washed with PBS containing 0.1% Tween-20 (PBS-T). Alkaline Phosphatase-conjugated Goat Anti-Human IgG (Southern Biotech, 2040-04, 1:1000 in PBS-B) was added. The secondary antibody reactions were incubated for 1 h. Plates were washed three times with PBS-T, and P-NitroPhenyl Phosphate (pNPP, Sigma-Aldrich, cat #N2765-100TAB) substrate was added and incubated for 30 min or until the development of a colorimetric reaction. The absorbance at 405 nm was measured by a microplate reader (Biotek, Elx808). The data was plotted with Graphpad Prism software. Representative mAbs from each class were tested for their binding to O1 LPS (FIG. 2A) and O2 LPS (FIG. 2B), and EC50 values were obtained (FIG. 2C). The majority of the anti-O2 LPS mAbs bound to both O1 and O2 LPS by ELISA. […] None of these LPS mAbs bound to the 03, 04, 05, 07, or 012 LPS serotypes (see e.g., FIG. 1A).
# [1] = system: K. pneumoniae 8570ΔcpsBLux (O2); test: Opsonophagocytic killing (OPK) assay, O2 capsule mutant; format: cell-based, Klebsiella pneumoniae; parameters: key to D Capsule OPK O2: +++: Strongly positive activity; +: Positive activity; +/−: Somewhat positive depending upon the test conditions; conditions: for D Capsule OPK O2: capsule mutant strain 8570ΔcpsB lux (O2); for OPK activity against O2 capsule mutant: secondary screening
# Method: OPK activity of anti-O2 LPS mAbs was tested against O1 and O2 strains. Briefly, log phase cultures of luminescent K. pneumoniae strains 8570ΔcpsBLux (O2) and 43816ΔcpsBLux (O1) were diluted to ˜2×10^6 cells/ml. K. pneumoniae cells, 5e5/well dimethylformamide (DMF) differentiated HL-60 cells, cleared baby rabbit serum (1:10 Cedarlane), and a series dilution of antibodies (2 ng-2.5 μg/mL) were mixed in 96-well plates and incubated at 37° C. for two hours with shaking (250 rpm). The relative light units (RLUs) were then measured using a multi-mode microplate reader (Synergy 2, Biotek or envision multilabel plate reader, Perkin Elmer). The percentage of killing was determined by comparing RLU derived from assays with no antibodies to RLU derived from assays with anti-K. pneumoniae mAbs and assays performed with a negative control mAb. Positive killing was determined where the percentage of killing is above 40%.
# [2] = system: O2 LPS activation of NF-κB in RAW264.7-lux cells; test: LPS neutralization assay (NF-κB luciferase, RAW264.7-lux), O2 LPS; format: cell-based, murine; parameters: key to LPS Neut O2: +++: Strongly positive activity; +: Positive activity; +/−: Somewhat positive depending upon the test conditions; conditions: for LPS Neut O2: Table 7 summary; for neutralizing activity against O2 LPS (NF-κB activation): human IgG1 format; for neutralization of LPS-O2: secondary screening
# Method: (§3) Activation of TLR4 receptors by bacterial LPS leads to downstream activation of the NF-κB transcriptional regulator. A decrease in induction of NF-κB-responsive luciferase activity was used to quantify LPS neutralization activity by LPS mAbs. A murine RAW264.7 macrophage cell line was engineered to carry a firefly luciferase reporter gene under the control of an NF-κB-responsive promoter (RAW264.7-lux). Serially diluted antibody stocks were mixed with LPS in a 1:1 ratio and incubated at 4° C. for 1 hr. Antibody/LPS mixtures were then diluted 1:10 into assay plates containing pre-seeded RAW264.7-lux cells (4e5 cells/well), which were then placed at 37° C. with 5% CO2 for 2.5 hours. Following incubations, Steady Glo solution (Promega) was added to each well and incubated for another 20 min protected from light. The relative light units (RLUs) were measured using a multi-mode microplate reader (Synergy 2, Biotek or envision multilabel plate reader, Perkin Elmer). The percentage of inhibition was determined by comparing RLU derived from assays with no antibodies to RLU derived from assays with anti-K. pneumoniae mAbs and assays performed with a negative control mAb. […] All mAbs were tested in human IgG1 format.
# O1 LPS = test: ELISA binding to O1 LPS; parameters: species or system Klebsiella pneumoniae; conditions: secondary screening
# Method: as §1, §2
# [3] = system: O1 LPS activation of NF-κB in RAW264.7-lux cells; test: LPS neutralization assay (NF-κB luciferase, RAW264.7-lux), O1 LPS; format: cell-based, murine; conditions: for neutralizing activity against O1 LPS (NF-κB activation): human IgG1 format
# Method: as §3
Molecule,binding to LPS-O2 (O2 LPS),D Capsule OPK O2 [1],OPK activity against O2 capsule mutant [1],LPS Neut O2 [2],neutralizing activity against O2 LPS (NF-κB activation) [2],neutralization of LPS-O2 [2],binding to LPS-O1 (O1 LPS),neutralizing activity against O1 LPS (NF-κB activation) [3],neutralization of LPS-O1 ([3]; secondary screening)
"KPN17: Class I anti-O2 antigen human mAb; VH SEQ ID NO: 71, VL SEQ ID NO: 72 (antibody, V domains shown, Description of Artificial Sequence: SyntheticKPN17 VH polypeptide; Description of Artificial Sequence: SyntheticKPN17 VL polypeptide) VH: EVQLVESGGGLVQPGGSLRLSCAASGFTFSHFWMHWVRQAPGQGLVWVARIDGSVTNLRYAGSVEGRFTISRDNAKNTLYLQMNSLRDEDTAVYYCARDLVGIGTPAGYGMDVWGQGTTVTVSS VL: DIQLTQSPSFLSASVGDRVTITCRASQGISTYLAWYQQKPGKAPKLLIYAASTLQSGVPSRFSGSGSGTEFTLTINSLQSEDFATYYCQQLTSHLYTFGQGTKLEIK",bind,+,showed OPK activity,+/−,moderate neutralizing activity,neutralize,bind,no activity,–
"KPS30: Class I anti-O2 antigen human mAb; VH SEQ ID NO: 125, VL SEQ ID NO: 126 (antibody, V domains shown, Description of Artificial Sequence: SyntheticKPS30 VH polypeptide; Description of Artificial Sequence: SyntheticKPS30 VL polypeptide) VH: EMQLVESGGGLVQPGVSLRLSCVDSGFSFSTSWLAWVRQAPGKGLEWLANIDPDGSTRNHVDSVRGRFTISRDNAKNSLYLQMNSLRAEDTAVYYCARDYAYNRFDYWGQGTMVTVSS VL: QSALTQPPSASGSPGQSVVISCTGTSSDIGANNYVSWYQQHPGKAPKLLLYEVNKRPSGVPDRFSASKSGNTASLTVSGLLAEDEADYYCCGYGGGRVFGGGTKLTVL",bound,+++,strong OPK activity,–,–,neutralized,bound,–,neutralized
"KPS24: Class III anti-O2 antigen human mAb; VH SEQ ID NO: 107, VL SEQ ID NO: 108 (antibody, V domains shown, Description of Artificial Sequence: SyntheticKPS24 VH polypeptide; Description of Artificial Sequence: SyntheticKPS24 VL polypeptide) VH: ELHLVESGGGLVKPGGSLRLSCAASGFTFKNAWMSWIRQAPGKGLEWVGRVKSEVDGGTTDYGVPVRGRFTISRDDSQSTLSLEMSSLQDDDTGVYYCRAFWSDFQTGYWGQGTLVTVSS VL: QSVLTQPPSVSAAPGQTVTIACSGSSSNIGSDSVSWFQQLPGTAPRVLMYENNKRPSGISDRFSGSKSGTSVTLGITGLQTGDEADYYCAAWDSSLRAYVFGSGTKVTVL",bound specifically,+++,strong OPK activity,+/−,moderate neutralizing activity,neutralized,–,no activity,–
